From US20230333108, “APTAMER-BASED POINT-OF-CARE ASSAY DEVICES AND METHODS” (The Regents of the University of California, published 2023) come the findings set out here.

Data set [1] concerns the target SARS-CoV-2 nucleocapsid (N) protein (SARS-CoV-2, UniProt P0DTC9 P0DTC9:1-419). Briefly: competition. The settings on record: tags: Sino Biological; label: 5'-biotin.
Data set [2] concerns the target SARS-CoV-2 spike (S) protein (SARS-CoV-2, UniProt P0DTC2 P0DTC2:14-1213). Briefly: competition. The following applies: tags: Sino Biological; label: 5'-biotin.

B1: N-aptamer (anti-N protein aptamer) (ssDNA)
DNA: TTTTTTGCAATGGTACGGTACTTCCGGATGCGGAAACTGGCTAATTGGTGAGGCTGGGGCGGTCGTGCAGCAAAAGTGCACGCTACTTTGCTAA
Regarding B1, in data set [1], the binding result is given as “binds”.

B2: S-aptamer (anti-S protein aptamer) (ssDNA)
DNA: TTTTTTCAGCACCGACCTTGTGCTTTGGGAGTGCTGGTCCAAGGGCGTTAATGGACA
Turning to B2, the binding result in data set [2] is on record as “binds”.
